The target in experiment [1] is human HHLA2 over-expressed on 300.19 mouse pre-B leukemic cells (human) (UniProt Q9UM44). Briefly: flow cytometry; TMIGD2-Fc binding to 300.19 HHLA2 cells with 10 ug/mL control IgG, against antigen only.
Experiment [2] shares this target. Briefly: flow cytometry; 15 ug/ml antibody on 300.19-human HHLA2 cells, PE-conjugated anti-human secondary antibody. In general terms: A flow cytometer gives signals particle by particle.
The target is the same in experiment [3]. Kind of experiment: flow cytometry; 10 ug/mL control IgG with 4 ug/mL biotinylated human TMIGD2-Fc, added to 300.19 HHLA2 cells.
The target in experiment [4] is T1, biotinylated human HHLA2-Fc (human, UniProt Q9UM44 23-344, limits assumed, biotinylated (sites not given)).
T1 construct: It may be the same protein as m8 with biotin added; not shown: Fc part
T1 sequence (looked up): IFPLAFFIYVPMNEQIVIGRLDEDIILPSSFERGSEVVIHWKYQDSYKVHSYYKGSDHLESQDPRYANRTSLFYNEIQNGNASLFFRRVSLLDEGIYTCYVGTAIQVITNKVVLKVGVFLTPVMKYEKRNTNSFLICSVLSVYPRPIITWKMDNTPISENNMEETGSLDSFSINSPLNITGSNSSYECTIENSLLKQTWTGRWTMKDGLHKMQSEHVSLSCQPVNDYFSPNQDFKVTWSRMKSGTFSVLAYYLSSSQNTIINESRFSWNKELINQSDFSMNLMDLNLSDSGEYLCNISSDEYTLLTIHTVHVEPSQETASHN
Kind of experiment: flow cytometry blocking assay; HHLA2-Fc binding to 300.19 KIR3DL3 cells with 10 ug/mL control IgG, against antigen only.

For experiment [5], the target named is T1, biotinylated human HHLA2-Fc. Kind of experiment: flow cytometry blocking assay; 10 ug/mL control IgG with 4 ug/mL biotinylated human HHLA2-Fc, added to 300.19 KIR3DL3 cells.
The target in the next experiment is T2, recombinant HHLA2-His (UniProt Q9UM44 23-344, limits assumed).
T2 construct: Analyte in the Biacore assay; also called HHLA2-His analyte; not shown: His tag
T2 sequence (looked up): T1 sequence (looked up)
Kind of experiment: SPR (Biacore, Cytiva); antibody captured on CM5 chip, HHLA2-His as analyte; monovalent. As for the experimental part:
Monovalent affinity was determined by capturing each antibody on an CM5 chip, followed by various concentrations of the HHLA2-His analyte.
On the technique in general: In SPR one partner is held on a chip, and binding of the other changes the refractive index at the surface.

Experiment [6] deals with human HHLA2 over-expressed on 300.19 mouse pre-B leukemic cells (human) (UniProt Q9UM44). Briefly: flow cytometry on 300.19 cells over-expressing human HHLA2, antibody titration, gMFI (aHu-APC).
Target sequence in this assay (Q9UM44 23-414): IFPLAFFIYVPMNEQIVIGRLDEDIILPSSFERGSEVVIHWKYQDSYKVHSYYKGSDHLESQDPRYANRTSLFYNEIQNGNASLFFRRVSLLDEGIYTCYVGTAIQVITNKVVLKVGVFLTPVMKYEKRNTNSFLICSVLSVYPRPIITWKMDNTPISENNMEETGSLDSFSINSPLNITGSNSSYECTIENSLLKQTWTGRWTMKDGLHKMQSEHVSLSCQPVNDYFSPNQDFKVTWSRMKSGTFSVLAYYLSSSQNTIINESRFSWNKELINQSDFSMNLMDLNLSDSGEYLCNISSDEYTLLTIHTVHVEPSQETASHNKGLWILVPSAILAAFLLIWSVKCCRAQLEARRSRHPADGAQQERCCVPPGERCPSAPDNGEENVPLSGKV
Experiment [7] addresses T1, biotinylated human HHLA2-Fc. Kind of experiment: flow cytometry blocking assay, antibody titration: binding of human HHLA2-Fc to 300.19 cells over-expressing human KIR3DL3 (blocked partner), gMFI (anti-SA-APC).
The target in experiment [8] is human HHLA2 over-expressed on 300.19 mouse pre-B leukemic cells (human) (UniProt Q9UM44). Kind of experiment: flow cytometry, antibody titration: binding of human TMIGD2-Fc (enhanced ligand) to 300.19 cells over-expressing human HHLA2, % TMIGD2-Fc binding normalized to isotype.
The target in a further experiment is T3, recombinant HHLA2-Fc (UniProt Q9UM44 23-344, limits assumed).
T3 construct: Antigen in solution in the Octet assay; also called HHLA2-Fc antigen; not shown: Fc part
T3 sequence (looked up): T1 sequence (looked up)
Kind of experiment: BLI (Octet, ForteBio); IgG captured on AHC sensor, 100 nM HHLA2-Fc in solution; avid. An excerpt:
The avid affinity of the anti-HHLA2 antibodies for recombinant HHLA2-Fc was investigated. The Octet system from ForteBio was used to measure avid affinity of the anti-HHLA2 antibodies for recombinant HHLA2-Fc.
In general terms: Biolayer interferometry detects binding as a change in optical thickness at a sensor tip.

In experiment [9] the target is human HHLA2 over-expressed on 300.19 mouse pre-B leukemic cells (human) (UniProt Q9UM44). Briefly: flow cytometry; TMIGD2-Fc binding to 300.19 HHLA2 cells with 10 ug/mL IgG, against antigen only; binding is enhanced.
The target in experiment [10] is T1, biotinylated human HHLA2-Fc. Briefly: flow cytometry blocking assay; HHLA2-Fc binding to 300.19 KIR3DL3 cells with 10 ug/mL IgG, against antigen only. As for the experimental part:
The ability of the anti-HHLA2 antibodies to block binding of HHLA2 to KIR3DL3 and enhance binding of HHLA2 to TMIGD2 was investigated. […] Alexa Fluor 633 conjugated streptavidin was added as a secondary detection reagent.

Experiment [11] deals with human HHLA2 over-expressed on 300.19 mouse pre-B leukemic cells (human) (UniProt Q9UM44). Kind of experiment: flow cytometry; 10 ug/mL IgG with 4 ug/mL biotinylated human TMIGD2-Fc, added to 300.19 HHLA2 cells; streptavidin-Alexa Fluor 633; binding is enhanced.

As a reminder, the Kd is the constant that tells how readily two partners part at equilibrium. The koff is the first-order rate constant of dissociation. For orientation: kon means the second-order rate constant of association. The term EC50 (read off the curve) denotes the concentration giving half of the maximal effect.

Substitutions are numbered along the chain they refer to.

On to Isotype control (antibody), for which the Antigen Binding MFI Ratio (IgG blocked/antigen only) in experiment [1] was found to be 1.6. In experiment [2], this molecule showed a 300.19-human HHLA2 cells FOB (fold over background) (fold over background) of 22 and a 300.19-human HHLA2 cells MFI of 3290 MFI. In addition, the Human TMIGD2-Fc Binding MFI for 300.19 HHLA2 cells in experiment [3] was determined as 943 MFI. Further, the Antigen Binding MFI Ratio (IgG blocked/antigen only) in experiment [4] was 0.9. This molecule also displayed a Human HHLA2-Fc Binding MFI for 300.19 KIR3DL3 cells in experiment [5] of 6990 MFI.

B1: Ab-65890 (antibody, human IgG1, V domains shown)
VH: QVQLVQSGAEVKKPGASVKVSCKASGYTFNSYRMHWVRQAPGQRLEWMGSIPAGTGNTVYSQKFQGRVTITRDTSASTAYMELSSLRSEDTAVYYCARDRGGYYYDSWDDWGQGTLVTVSS
VL: DIQMTQSPSSLSASVGDRVTITCRASQSISSYLNWYQQKPGKAPKLLIYGASSLQSGVPSRFSGSGSGTDFTLTISSLQPEDFATYYCQQVPFEPPTFGGGTKVEIK
notes: tested as IgG
In the case of B1, in the experiment with recombinant HHLA2-His, the Kd was found to be 0.765 nM, the koff is 9.28e-05 s⁻¹ and the kon stood at 123000 M⁻¹ s⁻¹. Also, in experiment [6], the EC50 (read off the curve) amounted to 0.1 µg/mL. For the same molecule, the “IC50 (read off the curve)” value in experiment [7] is roughly 1 µg/mL.

B2: Ab-65886 (antibody, human IgG1, kappa, V domains shown)
VH: B1 VH with N30E, S31K, R33A, S50F, V59K
VL: DIQMTQSPSSLSASVGDRVTITCRASQSISSYLNWYQQKPGKAPKLLIYGASSLQSGVPSRFSGSGSGTDFTLTISSLQPEDFATYYCQQVAFTPPTFGGGTKVEIKR
notes: tested as IgG
As for B2, in the experiment with recombinant HHLA2-His, the Kd amounted to 11.3 nM, the koff is 0.00688 s⁻¹ and the kon came to 609000 M⁻¹ s⁻¹. The molecule further came in with an EC50 (read off the curve) in experiment [6] of 0.1 µg/mL. Moreover, the “IC50 (read off the curve)” value in experiment [7] was roughly 1 µg/mL.

B3: Ab-65889 (antibody, human IgG1, kappa, V domains shown)
VH: B1 VH with N30A, R33K, S50D, V59H
VL: B2 VL with A92P, T94E
notes: tested as IgG
As to B3, in the experiment with recombinant HHLA2-His, the Kd worked out at 0.894 nM, the koff came to 0.000114 s⁻¹ and the kon is 128000 M⁻¹ s⁻¹. The EC50 (read off the curve) in experiment [6] was found to be 0.1 µg/mL. In addition, in [8], the EC50 (read off the curve) amounted to 0.1 µg/mL. The “IC50 (read off the curve)” value in experiment [7] was roughly 1 µg/mL.

B4: Ab-65885 (antibody, human IgG1, kappa, V domains shown)
VH: B1 VH with N30D, R33K, S50Y, V59K
VL: B2 VL
notes: tested as IgG
Turning to B4, in the experiment with recombinant HHLA2-His, the Kd turned out to be 5.82 nM, the koff worked out at 0.00205 s⁻¹ and the kon came to 325000 M⁻¹ s⁻¹. The molecule further yielded an EC50 (read off the curve) in [6] of 0.1 µg/mL. Besides, in experiment [7], the “IC50 (read off the curve)” value was roughly 1 µg/mL.

B5: Ab-65887 (antibody, human IgG1, kappa, V domains shown)
VH: B1 VH with N30E, S31Q, R33A, S50F, V59K, Y104W
VL: B2 VL with A92V
notes: tested as IgG
As for B5, in the experiment with recombinant HHLA2-His, the Kd was determined as 16.5 nM, the koff was determined as 0.0148 s⁻¹ and the kon is 900000 M⁻¹ s⁻¹. In experiment [6], this molecule showed an EC50 (read off the curve) of 0.1 µg/mL. In experiment [7], the “IC50 (read off the curve)” value was roughly 1 µg/mL.

B6: Ab-60665 (antibody, human IgG4 S228P, kappa, V domains shown)
VH: QVQLVQSGAEVKKPGSSVKVSCKASGGTSSNYAISWVRQAPGQGLEWMGGIIPIFGTANYAQKFQGRVTITADESTSTAYMELSSLRSEDTAVYYCARSGTIWHDIWGQGTMVTVSS
VL: EIVLTQSPATLSLSPGERATLSCRASQSVSSYLAWYQQKPGQAPRLLIYDSSNRATGIPARFSGSGSGTDFTLTISSLEPEDFAVYYCQQVVHWPPTFGGGTKVEIKR
notes: tested as IgG
Regarding B6, in the experiment with recombinant HHLA2-Fc, the equilibrium dissociation constant (Kd) amounted to 0.971 nM, the koff is 0.000189 s⁻¹ and the kon was 194000 M⁻¹ s⁻¹. In [2], this molecule registered a 300.19-human HHLA2 cells FOB (fold over background) (fold over background) of 820 and a 300.19-human HHLA2 cells MFI of 115000 MFI. The Antigen Binding MFI Ratio (IgG blocked/antigen only) in [9] worked out at 3.1. In [10], the “Antigen Binding MFI Ratio (IgG blocked/antigen only)” value stood at 0 ratio. In addition, the Human TMIGD2-Fc Binding MFI for 300.19 HHLA2 cells in experiment [11] came to 1860 MFI.

B7: Ab-60638 (antibody, human IgG4 S228P, kappa, V domains shown)
VH: QVQLVQSGAEVKKPGASVKVSCKASGYTFTSYAMHWVRQAPGQRLEWMGWINAGTGNTKYSQKFQGRVTITRDTSASTAYMELSSLRSEDTAVYYCARDLPHRGAFDPWGQGTLVTVSS
VL: EIVLTQSPGTLSLSPGERATLSCRASQSVSSDYLAWYQQKPGQAPRLLIYGASSRATGIPDRFSGSGSGTDFTLTISRLEPEDFAVYYCQLYGSAPRTFGGGTKVEIKR
notes: tested as IgG
With B7, in the experiment with recombinant HHLA2-Fc, the Kd is 1.42 nM, the koff amounted to 0.000469 s⁻¹ and the kon was 330000 M⁻¹ s⁻¹. Besides, in [2], the 300.19-human HHLA2 cells FOB (fold over background) (fold over background) was 394 and the 300.19-human HHLA2 cells MFI was determined as 46900 MFI. Moreover, the Antigen Binding MFI Ratio (IgG blocked/antigen only) in [9] was 4.5. The “Antigen Binding MFI Ratio (IgG blocked/antigen only)” value in [10] was 0 ratio. Moreover, the Human TMIGD2-Fc Binding MFI for 300.19 HHLA2 cells in [11] came out at 2730 MFI.

Values taken from US20250270323A1 (NEXTPOINT THERAPEUTICS, published 2025).
